In patent publication US20060287236A1:

Target: endogenous peptides
Assay: acid eluate of purified heterodimer, Edman pool sequencing

B1: soluble rat FcRn heterodimer (receptor, part only; not given: light chain, UniProt P13599 23-291, looked up, part only)
MHC heavy: AEPRLPLMYHLAAVSDLSTGLPSFWATGWLGAQQYLTYNNLRQEADPCGAWIWENQVSWYWEKETTDLKSKEQLFLEAIRTLENQINGTFTLQGLLGCELAPDNSSLPTAVFALNGEEFMRFNPRTGNWSGEWPETDIVGNLWMKQPEAARKESEFLLTSCPERLLGHLERGRQNLEWKEPPSMRLKARPGNSGSSVLTCAAFSFYPPELKFRFLRNGLASGSGNCSTGPNGDGSFHAWSLLEVKRGDEHHYQCQVEHEGLAQPLTVDL
pmole of amino acids recovered from acid elution, cycle 1: 5.9 pmol
pmole of amino acids recovered from acid elution, cycle 2: 4.7 pmol
pmole of amino acids recovered from acid elution, cycle 3: 0.7 pmol
pmole of amino acids recovered from acid elution, cycle 4: 7.6 pmol
pmole of amino acids recovered from acid elution, cycle 5: 0 pmol
pmole of amino acids recovered from acid elution, cycle 6: 0 pmol
pmole of amino acids recovered from acid elution, cycle 7: 0.2 pmol
pmole of amino acids recovered from acid elution, cycle 8: 0.6 pmol
pmole of amino acids recovered from acid elution, cycle 9: 9.5 pmol
pmole of amino acids recovered from acid elution, cycle 10: 0.3 pmol
